Measured values from ChEMBL document CHEMBL5346942, “Identification and analysis of small molecule inhibitors of FosB from Staphylococcus aureus” (RSC Med Chem, 2023).
Activity calls are given as the source filed them. No cut-off for these calls is given here.

Assays:
CC(C)[C@H](O)P(=O)(O)O [1] = assay: (§1) Binding affinity to Staphylococcus aureus FosB using L-cysteine as substrate assessed as Km by DTNB assay based michaelis-menton analysis (reference value: 0.29 +/- 0.03 mM)
CC[C@@H](O)P(=O)(O)O [2] = assay: as §1
C[C@@H](C(=O)O)P(=O)(O)O [3] = assay: as §1
C[C@H](CO)P(=O)(O)O [4] = assay: as §1
O=C(O)CP(=O)(O)O [5] = assay: as §1
CC(C)[C@H](O)P(=O)(O)O [6] = assay: (§2) Binding affinity to Staphylococcus aureus FosB using L-cysteine as substrate assessed as catalytic constant by DTNB assay based michaelis-menton analysis (reference value: 2.95 /s)
CC[C@@H](O)P(=O)(O)O [7] = assay: as §2
C[C@@H](C(=O)O)P(=O)(O)O [8] = assay: as §2
C[C@H](CO)P(=O)(O)O [9] = assay: as §2
O=C(O)CP(=O)(O)O [10] = assay: as §2
CC(C)[C@H](O)P(=O)(O)O [11] = assay: (§3) Binding affinity to Staphylococcus aureus FosB using L-cysteine as substrate assessed as Kcat/Km by DTNB assay based michaelis-menton analysis (reference value: 10.33 /mM/s)
CC[C@@H](O)P(=O)(O)O [12] = assay: as §3
C[C@@H](C(=O)O)P(=O)(O)O [13] = assay: as §3
C[C@H](CO)P(=O)(O)O [14] = assay: as §3
O=C(O)CP(=O)(O)O [15] = assay: as §3
[16] = biological target: Metallothiol transferase FosB (Staphylococcus aureus) (UniProt Q5HDM4); assay: Inhibition of Staphylococcus aureus FosB using L-cysteine as substrate by absorbance based DTNB assay
Chain of Metallothiol transferase FosB (Staphylococcus aureus) (Q5HDM4 whole entry): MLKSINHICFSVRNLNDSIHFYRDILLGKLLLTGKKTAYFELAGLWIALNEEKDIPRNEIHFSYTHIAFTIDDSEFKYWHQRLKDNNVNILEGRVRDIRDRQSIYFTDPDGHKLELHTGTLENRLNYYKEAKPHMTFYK

Chain of Metallothiol transferase FosB (Staphylococcus aureus), Q5HDM4 (Q5HDM4 whole entry): as above

For “Metallothiol transferase FosB (Staphylococcus aureus), Q5HDM4”, the Km (CC(C)[C@H](O)P(=O)(O)O [1]) was 250 µM, the Km (CC[C@@H](O)P(=O)(O)O [2]) was 250 µM and the Km (C[C@@H](C(=O)O)P(=O)(O)O [3]) was 250 µM. For the same compound, the Km (C[C@H](CO)P(=O)(O)O [4]) was 270 µM, the Km (O=C(O)CP(=O)(O)O [5]) was 240 µM and the kcat (CC(C)[C@H](O)P(=O)(O)O [6]) was 2.84 s⁻¹. It also gave a kcat (CC[C@@H](O)P(=O)(O)O [7]) of 2.82 s⁻¹, a kcat (C[C@@H](C(=O)O)P(=O)(O)O [8]) of 2.84 s⁻¹ and a kcat (C[C@H](CO)P(=O)(O)O [9]) of 2.91 s⁻¹. The kcat (O=C(O)CP(=O)(O)O [10]) was 2.83 s⁻¹, the kcat/Km (CC(C)[C@H](O)P(=O)(O)O [11]) was 11200 M⁻¹ s⁻¹ and the kcat/Km (CC[C@@H](O)P(=O)(O)O [12]) was 11400 M⁻¹ s⁻¹. It also gave a kcat/Km (C[C@@H](C(=O)O)P(=O)(O)O [13]) of 11400 M⁻¹ s⁻¹, a kcat/Km (C[C@H](CO)P(=O)(O)O [14]) of 10600 M⁻¹ s⁻¹ and a kcat/Km (O=C(O)CP(=O)(O)O [15]) of 11800 M⁻¹ s⁻¹.

For `O=C(O)CCP(=O)(O)O`, the inhibition [16] was “inactive”.

For `CC(C(=O)O)C(=O)O`, the inhibition [16] was “inactive”.

For `O=P(O)(O)CCP(=O)(O)O`, the inhibition [16] was “inactive”.
